Results reported in patent US20230242674A1 (LANKENAU INSTITUTE FOR MEDICAL RESEARCH, published 2023).

T1: recombinant human IDO2 protein (human, UniProt Q6ZQW0 1-407, limits assumed)
T1 construct: also called human Indoleamine 2,3-Dioxygenase 2; human IDO2 recombinant protein
T1 sequence: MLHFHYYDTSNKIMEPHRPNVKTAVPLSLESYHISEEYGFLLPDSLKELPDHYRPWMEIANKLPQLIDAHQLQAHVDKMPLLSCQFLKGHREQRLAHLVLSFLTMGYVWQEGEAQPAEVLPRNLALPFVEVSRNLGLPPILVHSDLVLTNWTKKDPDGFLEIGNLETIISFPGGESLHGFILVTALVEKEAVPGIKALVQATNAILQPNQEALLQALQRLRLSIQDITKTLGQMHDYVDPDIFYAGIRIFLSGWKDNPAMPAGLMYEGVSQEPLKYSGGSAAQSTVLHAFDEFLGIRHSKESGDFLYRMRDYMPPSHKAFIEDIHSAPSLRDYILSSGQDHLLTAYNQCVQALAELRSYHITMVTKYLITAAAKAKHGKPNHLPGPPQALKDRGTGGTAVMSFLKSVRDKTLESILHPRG

B1: anti-human IDO2 monoclonal antibody 18-1 (antibody, V domains shown)
VH: QVRLQQPGAELVKPGASVKLSCKASGYTFTSYWMHWVKQRPGQGLEWIGEINPSTGRTNYNERFRSKATLTVDKFSTTAYMQFSSLTSEDSAVYYCVGLRFAYWGQGTLVSVSA
VL: DVVMTQTPLSLPVSFGDQVSISCRSSQSLADSYGNTYLSWYLHKPGQSPQLLIYGISNRFSGVPDRFSGSGSGTDFTLKISTIKPEDLGMYYCLQGTHQPLTFGAGTKLELKR
notes: Mouse hybridoma antibody; It was detected with an anti-mouse IgG Fc-specific secondary antibody; also called mAb 18-1

Key:
[1] = target: B1; test: competitive ELISA; soluble peptide titrated against 1 µg/ml mAb in solution; competitor: coated recombinant human IDO2 (100 ng); plate-bound mAb detected with anti-mouse IgG Fc HRP and ABTS
Description: FIGS. 2A and 2B show results of a competitive ELISA that was developed to test the specificity of the antibodies. 100 ng of the recombinant human IDO2 protein was used to coat the ELISA plate. A constant amount (1 μg/ml) of IDO2 antibody was incubated in solution with specified concentrations of soluble peptide. If the antibody interacted with the soluble peptide, the antibody was then unavailable to bind the coated antigen. Anti-IDO2 Ig that bound the fixed protein was detected with an anti-mouse IgG FC-specific HRP secondary antibody and ABTS substrate. Data is presented as Mean±SD. […] FIG. 2A is a graph of a competitive ELISA comparing the recognition of the three anti-human IDO2 mAbs of FIG. 1 to the human epitope, plotting absorbance vs. epitope peptide concentration. FIG. 2B is a graph of a competitive ELISA comparing the recognition of the three anti-human IDO2 mAbs of FIG. 1 to the mouse epitope, plotting absorbance vs. epitope peptide concentration.
A competitive ELISA was developed to test the specificity of the antibodies. 100 ng of the recombinant human IDO2 protein was used to coat the ELISA plate. A constant amount (1 μg/ml) of IDO2 antibody was incubated in solution with specified concentrations of soluble peptide. […] Anti-IDO2 Ig that bound the fixed protein was detected with an anti-mouse IgG FC-specific HRP secondary antibody and ABTS substrate.

[2] = target: T2, mouse IDO1 with V5 tag, expressed in T-REx cells (mouse, UniProt P28776 1-407); test: Western blot of T-REx cell extracts; HRP secondary antibody, chemiluminescence
T2 construct: Cell extract fractionated for the Western blot; also called murine IDO1; not shown: V5 tag
Description: (§1) FIG. 3 is a Western blot analysis using IDO-expressing Tᵣₑₓ cells. All IDO expressed proteins mouse and human IDO 1 and IDO2 contain a V5 tag. […] Cell extracts for IDO expressing cells or the parental T-REX line were prepared and fractionated as previously described (PMID: 17671174 & 26717206). Detection of indicated proteins was done using standard blotting methods, HRP conjugated secondary antibodies and chemiluminescence detection reagents.
as §1, with “A” for “FIG. 3 is a”, “analysis was conducted” for “analysis”, “containing” for “contain”, “(See US2019/0062452, incorporated by reference herein).” for “(PMID: 17671174 & 26717206).”

[3] = target: T3, human IDO1 with V5 tag, expressed in T-REx cells (human, UniProt P14902 1-403); test: as above
T3 construct: Cell extract fractionated for the Western blot; not shown: V5 tag
Description: as §1
as §1, with “A” for “FIG. 3 is a”, “analysis was conducted” for “analysis”, “containing” for “contain”, “(See US2019/0062452, incorporated by reference herein).” for “(PMID: 17671174 & 26717206).”

[4] = target: T1, recombinant human IDO2 protein; test: ELISA; plate coated with 100 ng recombinant human IDO2; detection with anti-mouse IgG Fc-specific HRP and ABTS
Description: (§2) FIG. 1 is a graph showing the binding curves of three anti-human IDO2 monoclonal antibodies 13-3, 18-1 and 20-10 described herein and their binding concentrations vs. human IDO2 recombinant protein. Three cloned hybridomas were generated against the human IDO2 amino acids #331-351 (NP 919270; SEQ ID NO: 23). ELISA analysis compares the binding of the anti-human IDO2 antibodies (mAbs) to recombinant human IDO2 protein (100 ng of recombinant human IDO2 protein was used to coat the ELISA plate). Increasing concentrations of mAb were incubated with the coated protein and anti-IDO2 Ig that bound the fixed protein was detected with an anti-mouse IgG Fc-specific HRP secondary antibody and ABTS substrate. Data is presented as Mean±SD.
as §2, with “Three” for “FIG. 1 is a graph showing the binding curves of three anti-human IDO2 monoclonal antibodies 13-3, 18-1 and 20-10 described herein and their binding concentrations vs. human IDO2 recombinant protein. Three”, “substrate.” for “substrate. Data is presented as Mean±SD.”

T3 sequence (P14902 whole entry): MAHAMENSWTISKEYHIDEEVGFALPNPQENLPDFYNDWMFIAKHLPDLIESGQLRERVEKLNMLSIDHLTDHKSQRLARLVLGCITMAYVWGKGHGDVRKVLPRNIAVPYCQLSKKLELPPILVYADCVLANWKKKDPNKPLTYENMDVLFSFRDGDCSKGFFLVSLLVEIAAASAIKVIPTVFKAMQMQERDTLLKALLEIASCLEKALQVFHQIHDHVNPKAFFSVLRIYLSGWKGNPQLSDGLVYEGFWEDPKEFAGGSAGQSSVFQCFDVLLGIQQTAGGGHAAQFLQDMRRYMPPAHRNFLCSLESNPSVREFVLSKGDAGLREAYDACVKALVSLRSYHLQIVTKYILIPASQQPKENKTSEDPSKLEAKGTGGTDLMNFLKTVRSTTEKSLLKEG
T2 sequence (P28776 whole entry): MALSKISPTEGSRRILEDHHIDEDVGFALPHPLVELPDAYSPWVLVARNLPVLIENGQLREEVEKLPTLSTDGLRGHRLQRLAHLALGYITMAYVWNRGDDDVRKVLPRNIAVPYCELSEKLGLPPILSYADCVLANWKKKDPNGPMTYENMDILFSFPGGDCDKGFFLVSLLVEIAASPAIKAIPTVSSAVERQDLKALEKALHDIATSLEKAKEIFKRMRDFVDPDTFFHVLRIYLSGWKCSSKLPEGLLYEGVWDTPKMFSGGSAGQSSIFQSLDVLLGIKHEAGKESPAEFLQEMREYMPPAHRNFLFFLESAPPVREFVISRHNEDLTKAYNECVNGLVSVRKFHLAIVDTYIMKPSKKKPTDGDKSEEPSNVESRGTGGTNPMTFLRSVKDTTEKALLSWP

| Binder | IC50 (read off the curve) [1] [µM] | binding result [2] | binding result [3] | EC50 (read off the curve) [4] [µg/mL] |
| --- | --- | --- | --- | --- |
| RDYILASGPGDCLMAYNQCVE [murine IDO2 epitope peptide (amino acids 331-351 of murine IDO2)] | ~9 | – | – | – |
| anti-human IDO2 monoclonal antibody 13-3 (antibody, V domains shown, Mouse hybridoma antibody raised against human IDO2 amino acids 331-351; It was detected with an anti-mouse IgG Fc-specific secondary antibody; also called mAb 13-3) VH: QVRLQQPGAELVKPGASVKLSCKASGYTFTSYWMHWVKQRPGQGLEWIGEINPSTGRTNYNERFRSKATLTVDKFSTTAYMQFSSLTSEDSAVYYCVGLRFAYWGQGTLVSVSA VL: DVVMTQTPLSLPVSFGDQVSISCRSSQSLADSYGNTYLSWYLHKPGQSPQLLIYGISNRFSGVPDRFSGSGSGTDFTLKISTIKPEDLGMYYCLQGTHQPLTFGAGTKLELKR | – | no binding | no binding | ~0.01 |
| anti-human IDO2 monoclonal antibody 20-10 (antibody, V domains shown, Mouse hybridoma antibody; It was detected with an anti-mouse IgG Fc-specific secondary antibody; also called mAb 20-10) VH: QVRLQQPGAELVKPGASVKLSCKASGYTFTSYWMHWVKQRPGQGLEWIGEINPSTGRTNYNERFRSKATLTVDKFSTTAYMQFSSLTSEDSAVYYCVGLRFAYWGQGTLVSVSA VL: DVVMTQTPLSLPVSFGDQVSISCRSSQSLADSYGNTYLSWYLHKPGQSPQLLIYGISNRFSGVPDRFSGSGSGTDFTLKISTIKPEDLGMYYCLQGTHQPLTFGAGTKLELKR | – | no binding | no binding | ~0.02 |
| B1 | – | no binding | no binding | ~0.02 |
| RDYILSSGQDHLLTAYNQCVQ (also called hIDO2 Peptide) [Human Epitope] | ~7 | – | – | – |
